Results reported in PMC9169624, “Human HELB is a processive motor protein that catalyzes RPA clearance from single-stranded DNA” (Proceedings of the National Academy of Sciences of the …, 2022).

Biological target: human Replication Protein A (RPA) complex (human) (UniProt P27694)
Sequence (P27694 whole entry, chain 1 of 3): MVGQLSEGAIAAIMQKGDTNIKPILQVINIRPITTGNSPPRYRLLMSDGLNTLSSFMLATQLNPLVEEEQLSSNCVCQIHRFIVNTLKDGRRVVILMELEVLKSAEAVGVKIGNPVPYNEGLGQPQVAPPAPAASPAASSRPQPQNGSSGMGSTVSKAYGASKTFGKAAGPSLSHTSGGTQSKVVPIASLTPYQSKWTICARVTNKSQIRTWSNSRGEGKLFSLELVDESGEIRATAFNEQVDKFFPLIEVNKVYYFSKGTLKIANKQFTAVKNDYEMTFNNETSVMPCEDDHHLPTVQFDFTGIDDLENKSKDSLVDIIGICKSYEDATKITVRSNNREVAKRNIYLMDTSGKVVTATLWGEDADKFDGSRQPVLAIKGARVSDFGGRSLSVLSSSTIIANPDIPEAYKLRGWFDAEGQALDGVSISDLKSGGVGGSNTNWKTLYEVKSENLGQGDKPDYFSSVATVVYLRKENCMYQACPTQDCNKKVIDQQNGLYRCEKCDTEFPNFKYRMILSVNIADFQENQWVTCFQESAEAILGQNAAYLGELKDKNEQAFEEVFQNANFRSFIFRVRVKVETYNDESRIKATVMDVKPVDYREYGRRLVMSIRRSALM
Sequence (P15927 whole entry, chain 2 of 3, further chain): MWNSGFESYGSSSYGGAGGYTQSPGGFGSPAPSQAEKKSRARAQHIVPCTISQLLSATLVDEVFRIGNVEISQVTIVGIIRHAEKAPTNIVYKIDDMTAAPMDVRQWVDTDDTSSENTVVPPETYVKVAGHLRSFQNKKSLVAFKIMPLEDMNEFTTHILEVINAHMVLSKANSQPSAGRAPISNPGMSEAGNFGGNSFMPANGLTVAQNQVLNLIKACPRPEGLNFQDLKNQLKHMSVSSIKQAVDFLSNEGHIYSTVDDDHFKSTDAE
Sequence (P35244 whole entry, chain 3 of 3, further chain): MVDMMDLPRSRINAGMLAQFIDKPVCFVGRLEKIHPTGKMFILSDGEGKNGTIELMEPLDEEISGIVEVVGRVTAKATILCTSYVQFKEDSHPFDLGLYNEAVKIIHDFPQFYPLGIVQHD

Chain of Human DNA helicase B (HELB) (Q8NG08 whole entry): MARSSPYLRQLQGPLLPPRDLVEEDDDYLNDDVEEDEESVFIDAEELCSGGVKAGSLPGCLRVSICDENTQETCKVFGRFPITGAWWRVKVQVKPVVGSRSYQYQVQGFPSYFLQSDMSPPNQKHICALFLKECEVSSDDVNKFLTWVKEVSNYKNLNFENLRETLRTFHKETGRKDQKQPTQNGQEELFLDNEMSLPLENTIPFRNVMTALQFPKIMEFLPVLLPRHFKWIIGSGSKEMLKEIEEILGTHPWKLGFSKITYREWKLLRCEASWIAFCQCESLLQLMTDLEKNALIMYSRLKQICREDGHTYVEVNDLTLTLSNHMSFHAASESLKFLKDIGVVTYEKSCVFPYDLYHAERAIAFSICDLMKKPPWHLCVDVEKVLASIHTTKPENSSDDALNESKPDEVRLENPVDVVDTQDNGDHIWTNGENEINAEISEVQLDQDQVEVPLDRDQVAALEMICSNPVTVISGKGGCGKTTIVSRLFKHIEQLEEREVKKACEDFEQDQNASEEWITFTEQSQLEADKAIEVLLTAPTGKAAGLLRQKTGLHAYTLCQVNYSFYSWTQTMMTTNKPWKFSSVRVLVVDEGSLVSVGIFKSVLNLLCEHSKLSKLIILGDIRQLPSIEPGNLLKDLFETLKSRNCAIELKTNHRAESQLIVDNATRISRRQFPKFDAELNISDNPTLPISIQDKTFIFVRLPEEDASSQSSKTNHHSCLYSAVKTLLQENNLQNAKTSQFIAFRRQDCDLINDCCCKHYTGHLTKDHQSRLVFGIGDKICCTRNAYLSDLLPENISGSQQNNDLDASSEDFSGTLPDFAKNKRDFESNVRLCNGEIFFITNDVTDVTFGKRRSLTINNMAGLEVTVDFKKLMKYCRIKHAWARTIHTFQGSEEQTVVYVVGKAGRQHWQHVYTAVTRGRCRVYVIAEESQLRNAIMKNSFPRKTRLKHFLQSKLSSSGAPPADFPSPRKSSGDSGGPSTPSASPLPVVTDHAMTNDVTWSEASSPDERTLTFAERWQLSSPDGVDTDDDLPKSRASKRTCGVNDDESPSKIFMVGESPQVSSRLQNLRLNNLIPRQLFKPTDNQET

## Human DNA helicase B (HELB) (from UniProt Q8NG08 1-1087) (enzyme)
  observed rate of ATP hydrolysis by HELB at low φX174 ssDNA (0.1 × KDNA), RPA titrated from one RPA per 200 nt to one RPA per 20 nt: 8 fold
